This note sets out measurements from PMC2995781.

The target of assay [1] is surfactant protein A (SP-A) in human serum (human (endogenous in serum)) (UniProt Q8IWL2). The experiment in a line: latex bead agglutination (light microscopy); whole serum or BAL sample; streptavidin latex beads with biotinylated rabbit anti-goat antibody and goat anti-human SP-A antibody (N19); Hank solution, 6.5 mM Ca2+, 3 h at 4°C on a microscope slide; size of the biggest agglutinate in pixel.

Assay [2] addresses surfactant protein A (SP-A) in human broncho-alveolar lavage fluid (human (endogenous in BAL fluid)) (UniProt Q8IWL2). Described as above.

As for “surfactant protein A (SP-A) in human serum (from UniProt Q8IWL2 21-248) (natural protein)”, in assay [1], the size of the agglutinates is 1360 pixel.
On to “surfactant protein A (SP-A) in human broncho-alveolar lavage fluid (from UniProt Q8IWL2 21-248) (natural protein)”, for which, in assay [2], the size of the agglutinates was 1060 pixel.
